From patent US20230071765A1, “COMPOSITIONS HAVING THIOREDOXIN ACTIVITY AND RELATED METHODS” (ORPRO THERAPEUTICS, INC., priority 2020, published 2023)

Assays:
Sprague-Dawley rats = experiment: nebulized aerosol inhalation in rats, inflammatory potential and toxicity; type: in vivo, rat
Description: This example evaluated and compared the in vivo inflammatory potential among three forms of C35S monothiol Trx (oxidized ORP-100, reduced ORP-100, and reduced ORP100S) formulated in the sucrose/EDTA formulation composition described in PCT WO 2006/090127 and delivered to normal rats as nebulized aerosols at doses of […] and 40 mg/kg.
All three forms of ORP-100 were lyophilized following reduction with DTT and formulated in sucrose buffer (9% sucrose 1.17 mM EDTA pH 5.2). All test articles were evaluated at low (10 mg/kg) and high (40 mg/kg) target delivered doses. The test articles were administered to Charles River Sprague-Dawley rats via inhalation as an aerosol. The aerosol of each of the test articles was produced by a commercially available vibrating mesh nebulizer whose output was attached to a nose-only exposure system.
Target doses were achieved via modulation of the aerosol exposure time while maintaining the aerosol concentration constant. Animals in Low Dose groups received a single dose of test article during a 20 minute exposure to achieve a target delivered dose of 10 mg/kg and deposited dose of 1 mg/kg. Animals in High Dose groups received a single dose of test article during a 75 minute exposure to achieve a target delivered dose of 40 mg/kg and target deposited dose of 4 mg/kg.
Animals in each study group were evaluated for potential toxicity by measuring various parameters including: clinical signs, body weight, clinical pathology (BALF cell counts, LDH and albumin measurements), lung tissue cytokines, lung weights, gross pathology, and microscopic pathology of respiratory target tissues. Additionally, three animals in each Low Dose group had lung tissues collected for immunohistochemistry (Alizèe Pathology, Thurmont, M D). Three (3) animals in each Low Dose group were to be euthanized at 1 hour and 4 hours post exposure for blood and tissue collections. Four (4) animals in each High Dose group were euthanized at 4 and 20 hours post exposure for blood and tissue collections.

[1] = material purified with removal of the red fraction, 68.4 mg/ml
[2] = DTNB assay of reduction state (free SH groups); type: physicochemical; conditions: for % reduced (68 hrs): 25° C., red fraction removed
Description: Functional assays 1. Reduction state of ORP100S was quantified using DTNB which reacts with free SH groups resulting in a yellow color change at 412 nm. Fifty microliters of 2.5 mM rhTrx was added to a 96-well plate, followed by 175 microliters of sample buffer and 25 microliters of 6 mM DTNB. After reactions were initiated by the addition of DTNB, change in kinetic absorbance at 412 nm due to DTNB reduction was monitored spectrophotometrically at 30° C. ORP100S concentration was determined by A280 (Nanodrop) using the extinction coefficient of human Trx-1 (7,000). The actual concentrations of free sulfhydryl groups were calculated based on the absorbance at 412 nm and the extinction coefficient of DTNB (14,150) in order to determine the reduction state as percentage of free sulfhydryl. […] 2. Percent of free monomer ORP100S in solution was determined using SEC. Samples were analyzed on a BioBasic S-300 250×4.6 column (Thermo Scientific) run on an Agilent 1100 HPLC system. The SEC-HPLC mobile phase buffer consisted of 40 mM ammonium acetate (pH 5.5), 2 mM EDTA and 450 mM NaCl. Low pH minimized dimerization while the 450 mM NaCl concentration improved resolution. The flow rate was 0.35 mL/min and absorbance was monitored at 280 nm. The length of each run was 20 minutes. The ORP100S monomer percentage was determined by integration of the area under the peak of the monomeric fraction divided by the total area under the curve of the chromatogram. 3. Disulfide bond reduction activity of ORP100S was quantified by assaying the reduction state of a small protein (human insulin) which in its heterodimeric form contains two intermolecular and one intramolecular disulfide, all three of which are known to be suitable thioredoxin substrates. Insulin reduction has classically been used to quantify thioredoxin activity by absorbance change following addition of NADPH and TrxR (Holmgren A., 1979, Thioredoxin catalyzes the reduction of insulin disulfides by dithiothreitol and dihydrolipoamide, J Biol Chem 254:9627-32). Such an approach is not suitable for monothiol C35S thioredoxins ORP-100 and ORP100S due to 1) the lack of cycling resulting from stoichiometric covalent linkage to the disulfide bond substrate and 2) the inability of NADPH and TrxR to reduce Cys32 of the oxidized monothiol Trx active site. Consequently, a new assay was developed based on the use of reverse-phase (RP) HPLC to monitor the rate of conversion of disulfide-bonded insulin heterodimers to monomeric forms. The two chains of human insulin have a total of six Cys residues which form three disulfide bonds in its mature structure. When ORP100S in the reduced form is incubated with dimeric insulin it reacts with these disulfide bonds to disrupt them, simultaneously forming covalent linkages to the ORP100S Cys32. […] The ORP100S samples were incubated with 10 mg/mL insulin for various time points (0-90 min) and the reactions were stopped by addition of iodacetic acid (IA) and trifluoroacetic acid (TFA). Relative activity at each time point was determined from changes in the area under the insulin heterodimer peak following separation over RP-HPLC (Agilent 1100) using an Intrada WP-RP 50×3 (Imtakt) column. Buffer A was 0.1% TFA and Buffer B was 0.1% TFA in acetonitrile. The gradient was […] in 5 min followed by 30 to 60% B in 45 min, then 60 to 80% B for an additional 5 min. The flow rate was 0.2 mL/min and absorbance was measured at 280 nm. In order to evaluate the change in the intact insulin molecule a time 0 baseline was first established using 1 M IA and 0.1% TFA without the addition of ORP100S. The area under the intact insulin heterodimer peak was then determined and set as equivalent to 100%. After the reaction with ORP100S the area of the intact insulin peak (corresponding to retention time) was measured. The percent reduction in intact insulin was then calculated from the decrease in the area following reduction divided by the area at time 0 multiplied by 100.

B1: ORP100S: thioredoxin with monothiol active site, Cys35 and non-active Cys 62, 69 and 73 substituted with serine (SEQ ID NO:29) (protein)
chain: MVKQIESKTAFQEALDAAGDKLVVVDFSATWCGPSKMIKPFFHSLSEKYSNVIFLEVDVDDSQDVASESEVKSMPTFQFFKKGQKVGEFSGANKEKLEATINELV
modifications: synthetic peptide motif
differences in BALF LDH, albumin, cell counts, differential counts and lung tissue cytokines vs. oxidized ORP-100 control groups (Sprague-Dawley rats; low and high dose aerosol): unremarkable
neutrophil influx (sucrose/EDTA formulation effect) (Sprague-Dawley rats; sucrose/EDTA formulation, nebulized aerosol): abrogated neutrophil influx almost completely
adverse test article effects (clinical observations, BALF chemistry, cell count, differential, lung cytokines, macroscopic and microscopic findings) (Sprague-Dawley rats; target delivered doses 10 mg/kg and 40 mg/kg, aerosol, 1, 4 or 20 hours post exposure): no evidence of adverse test article effects
Endotoxin level (Endosafe PTS) [1]: 0.002 EU/mg
% reduced (68 hrs) ([2]; 70 mg/mL in PBS): 109%
% reduced (68 hrs) ([2]; 80 mg/mL in PBS): 87%
% reduced (68 hrs) ([2]; 90 mg/mL in PBS): 91%
% reduced (68 hrs) ([2]; 100 mg/mL in PBS): 91%
% reduced (68 hrs) ([2]; 110 mg/mL in PBS): 102%
DTNB % reduced ([2]; Ox:Red 0:100 mixture): 86%
DTNB % reduced ([2]; Ox:Red 25:75 mixture): 73%
DTNB % reduced ([2]; Ox:Red 50:50 mixture): 55%
DTNB % reduced ([2]; Ox:Red 75:25 mixture): 49%
DTNB % reduced ([2]; Ox:Red 100:0 mixture): 22%
